Measured values: publication PMC4041422, “Rapid kinetics of iron responsive element (IRE) RNA/iron regulatory protein 1 and IRE-RNA/eIF4F complexes respond differently to metal ions”

T1: IRP1 (iron regulatory protein 1) (rabbit, UniProt Q01059 1-889)
T1 sequence: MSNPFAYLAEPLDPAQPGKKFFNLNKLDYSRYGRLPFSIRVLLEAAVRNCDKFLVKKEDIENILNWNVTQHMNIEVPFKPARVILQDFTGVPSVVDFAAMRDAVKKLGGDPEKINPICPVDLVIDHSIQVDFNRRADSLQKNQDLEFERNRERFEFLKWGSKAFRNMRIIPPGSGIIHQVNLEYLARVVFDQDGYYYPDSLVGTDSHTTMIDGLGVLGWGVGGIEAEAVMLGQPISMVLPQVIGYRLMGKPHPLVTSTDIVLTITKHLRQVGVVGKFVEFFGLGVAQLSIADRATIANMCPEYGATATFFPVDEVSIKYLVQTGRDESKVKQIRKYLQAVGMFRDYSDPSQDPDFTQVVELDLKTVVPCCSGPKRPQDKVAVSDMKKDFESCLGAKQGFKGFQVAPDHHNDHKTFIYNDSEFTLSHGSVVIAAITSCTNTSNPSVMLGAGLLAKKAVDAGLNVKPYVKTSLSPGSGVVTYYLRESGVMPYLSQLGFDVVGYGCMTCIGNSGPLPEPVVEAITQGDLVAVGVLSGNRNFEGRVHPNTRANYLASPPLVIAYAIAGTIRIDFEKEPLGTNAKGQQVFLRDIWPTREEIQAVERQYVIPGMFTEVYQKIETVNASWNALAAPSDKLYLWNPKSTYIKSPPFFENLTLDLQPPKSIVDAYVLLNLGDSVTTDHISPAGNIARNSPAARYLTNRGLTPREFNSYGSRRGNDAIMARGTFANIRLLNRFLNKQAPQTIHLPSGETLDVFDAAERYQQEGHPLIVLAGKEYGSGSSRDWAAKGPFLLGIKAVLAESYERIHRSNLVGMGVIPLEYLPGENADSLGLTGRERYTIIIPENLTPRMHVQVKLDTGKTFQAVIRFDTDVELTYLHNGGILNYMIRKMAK


What was measured:
Settings in all cases: protein: recombinant; tags: Ni-chelate purified; hairpin with mid-helix bulge C and hexaloop
[1] = target: T1, IRP1 (iron regulatory protein 1); assay: stopped-flow fluorescence anisotropy (koff/kon); 5 uM Mn2+; kon 176, koff 9.7; 40 mM HEPES pH 7.2, 100 mM KCl, 1 mM MgCl2 (Methods; not listed in the Figure 2 legend), 5% glycerol, 2% 2-mercaptoethanol, 25 C; RNA 50 nM with IRP1 0.05-1 uM; eIF4F 0.1 uM with RNA 0.1-0.5 uM
[2] = target: T1, IRP1 (iron regulatory protein 1); assay: stopped-flow fluorescence anisotropy (koff/kon); 150 mM KCl; kon 209, koff 6.3; 40 mM HEPES pH 7.2, 100 mM KCl, 1 mM MgCl2 (Methods; not listed in the Figure 2 legend), 5% glycerol, 2% 2-mercaptoethanol, 25 C; RNA 50 nM with IRP1 0.05-1 uM; eIF4F 0.1 uM with RNA 0.1-0.5 uM
[3] = target: T1, IRP1 (iron regulatory protein 1); assay: stopped-flow fluorescence anisotropy (koff/kon); no Mn2+, 100 mM KCl; kon 400 uM-1 s-1, koff 6.2 s-1; 40 mM HEPES pH 7.2, 100 mM KCl, 1 mM MgCl2 (Methods; not listed in the Figure 2 legend), 5% glycerol, 2% 2-mercaptoethanol, 25 C; RNA 50 nM with IRP1 0.05-1 uM; eIF4F 0.1 uM with RNA 0.1-0.5 uM
[4] = target: T1, IRP1 (iron regulatory protein 1); assay: stopped-flow fluorescence anisotropy (koff/kon); 150 mM KCl; kon 39, koff 7.4; 40 mM HEPES pH 7.2, 100 mM KCl, 1 mM MgCl2 (Methods; not listed in the Figure 2 legend), 5% glycerol, 2% 2-mercaptoethanol, 25 C; RNA 50 nM with IRP1 0.05-1 uM; eIF4F 0.1 uM with RNA 0.1-0.5 uM
[5] = target: T1, IRP1 (iron regulatory protein 1); assay: stopped-flow fluorescence anisotropy (koff/kon); 5 uM Mn2+; kon 35.2, koff 7.6; 40 mM HEPES pH 7.2, 100 mM KCl, 1 mM MgCl2 (Methods; not listed in the Figure 2 legend), 5% glycerol, 2% 2-mercaptoethanol, 25 C; RNA 50 nM with IRP1 0.05-1 uM; eIF4F 0.1 uM with RNA 0.1-0.5 uM
[6] = target: T1, IRP1 (iron regulatory protein 1); assay: stopped-flow fluorescence anisotropy (koff/kon); no Mn2+, 100 mM KCl; kon 51.5 uM-1 s-1, koff 7.0 s-1; 40 mM HEPES pH 7.2, 100 mM KCl, 1 mM MgCl2 (Methods; not listed in the Figure 2 legend), 5% glycerol, 2% 2-mercaptoethanol, 25 C; RNA 50 nM with IRP1 0.05-1 uM; eIF4F 0.1 uM with RNA 0.1-0.5 uM

Row | Binder | Kd [1] [nM] | Kd [2] [nM] | Kd [3] [nM] | Kd [4] [nM] | Kd [5] [nM] | Kd [6] [nM]
1 | GUUCUUGCUUCAACAGUGUUUGAACGGAAC (structured_RNA) [FRT IRE-RNA, fluorescein labeled (FIFRT IRE-RNA)] | 55 ± 2.7 | 30 ± 0.7 | 15.5 ± 0.5 | – | – | –
2 | CCUCAUCUUUGUCAGUGCACAAAAUGGCG (structured_RNA) [ACO2 IRE-RNA, fluorescein labeled (FIACO2 IRE-RNA)] | – | – | – | 190 ± 9 | 217 ± 7.6 | 136 ± 2.9
